Assay: soluble on expression in E. coli; label from the status in PepcDB or PDB records

**Q.** Which “soluble on expression in E. coli” value does the source give for “MGSDKIHHHHHHMKKYQRLAEQIREQIASGVWQPGDRLPSLREQVASSGMSFMTVGHAYQLLESQGRIIARPQSGYYVAPHPVCRSVATAAHVIRDEAVDINTYIFEMLQASRDTSVVPFASAFPDPRLFPLPQLNRSLAQVSKTATAMSVIENLPPGNAELRYAIARRYAQQGITVSPDEIVITAGALEALNLSLQAVTAPGDWVVVENPCFYGALQALERLRLKALSIPTDVKEGIDLMALEQALQEYPVKACWLMTNSQNPLGFTLSAEKKARLVALLTHHNVTLIEDDVYSELYFGREKPLPAKAWDRDDTVLHCSSFSKCLVPGFRIGWVAGGSHARQIQRLQLMSTLSTSSPMQLALVDYLSTRRYDAHLRRLRRQLAERKQQAWQTLLRHLPAEVKIHHNDSGYFLWLELPEQLDAGELSAKALEHLISIAPGKMFSTSGAWTRFFRFNTAWHWGEREEQAVKQLGSLIREMLSAKSLV” here?
**A.** not soluble

**Q.** Which “soluble on expression in E. coli” value does the source give for “SRLSIDLYPKIETSNIMVVTSYAGASASDIENNVTKVLENTLNGVSNLKHITSKSRENASVITLQFNEGVDIEVATNDVRDKLDAVSNFLPDDVNKPMIFKFGTDDIPITMLSVQAKESTMALSKILEDKVTNALARLDGVGAVSIMGTVKREIQVYCDPAKLEAYNLTVEAVSQIISAENKNVPAGLIDLGNKTSSIRIQGEFADARQLNQIVVASVGGRNVYLSDVARVEDTHAENEQESYNNNVRGAMIMINKQSGANSVAISRAVRGALPEIQASLPSDVELGTIFDTSDNIVNTINSLRD” here?
**A.** not soluble

**Q.** Which “soluble on expression in E. coli” value does the source give for “MGSDKIHHHHHHMHRDTVFDLIGIGFGPSNLALAVRLAEEAGVPDLAHCFIERQPEFGWHRGMLLDDCRMQISFLKDLVTMRDPKSRFTFINYLFERGRLADFVNLKSFYPTRVEFHDYLAWVAASFDDRVNYGQTVTGIEAVKATARTNEVEALRVFSRDSEGREWQRVTRALSVGIGGGAQVPEAFAALGTHNIVHSSQYLTSIDRVVGPASSARKRVAVIGAGQSAAEVFVDLTRRYPHVDASLIIRSGALKPADDSPFVNEIFSPAFTDVVYAQPRDGRRALIERFRDTNYAVVDRPLIEQIYEMLYLQNVCAEPRHRLLANTGIETAVRTVNGRIELTLRDRLNGHARAEQFDALVLATGYRRDTHLDLLEGLAPHLGEALAQGNVERDYRLATPASFKPRIYLQGCCEDSHGLSDTLLSVLALRSDEIAASLAHHAAQDRSAGRAGEAQANATAASRMAFAL” here?
**A.** not soluble

**Q.** For “PTKLETFPLDVLVNTAAEDLPRGVDPSRKENHLSDEDFKAVFGMTRSAFANLPLWKQQNLKKEKGLF”, which “soluble on expression in E. coli” value is on record?
**A.** soluble

**Q.** For “MGSDKIHHHHHHMKAIVFGGSGFIGSHIVNSLEADSVAYYSLEKGTNVKRNDAVWIQGDVTDYSKVEASMAGYDTVFFAVEDWAADEARNREILLNGIKNVVSAIKKASTDQKLVSFSMINQPSYPLEYFRTKRLVEDNTRVLKNGLVVRLSIVFGDGDHFTDRFVKLAEQVSHLPEEGNLAPVYVGDVVTVVNSIIKREGVYDICSNDNLPLIRIINYIRKNIGKKEIGSVKLEKGLSMLTETGLFSRYEAELMFQDYYRETSILDRYVKNPTSYLDFLRSILVEHTT”, which “soluble on expression in E. coli” value is on record?
**A.** not soluble

**Q.** For “MTGYGSLFERLNGDADKRVGWSREVSAMASVAAHLGKMLSTRAGSVQTLSDYGLPDLNDMRLSLHDSLSQARSAIEGFIEAYEPRLSDVRVVSLPRDNDQLRLAFSIEGLLEVEGFKRQVSFSACLDGSGQVKVS”, which “soluble on expression in E. coli” value is on record?
**A.** not soluble

**Q.** Which “soluble on expression in E. coli” value does the source give for “MALTATVRRAELQISDMDRGYYANHSLTLAQHPSETDERLMVRLLAFALFADDRLEFGRGLSNDDEPDLWRRDYTGDPDLWIDLGQPDESRVRKACNRSREAVVIGYGGQATETWWKKHANAMGRYRNLRVIELDSQATEALGALIQRGMRFDVIIQDGEVQMLADHGSVTLTPMVRQAPAE” here?
**A.** soluble

**Q.** With “MGHHHHHHSHGFYTIKEAERGVVTRFGKFSHLVEPGLNWKPTFIDEVKPVNVEAVRELAASGVMLTSDENVVRVEMNVQYRVTNPEKYLYSVTSPDDSLRQATDSALRGVIGKYTMDRILTEGRTVIRSDTQRELEETIRPYDMGITLLDVNFQAARPPEEVKAAFDDAIAARENEQQYIREAEA” as the sequence, how does the “soluble on expression in E. coli” value read?
**A.** soluble

**Q.** With “MSLSSYTVLAVDDSEINLKLIVHTLQPFGFQIFTAESAADARNVLLTNRVDVLLLDVSMPDQDGFSFCRELREIERFKLLPILFITGINREVGFDEAISHGGDDFIQKPFQPKELIAKIRAFIRIKILQDELLEQKKNYERELIMARKVQQELLPEKELEWNGVSLSTIFQPLMQIGGDYTDAWIEDDSLHIFIADCSGHGPSAALLAAMLKMQVSSLSPDQSLQEKVQTLRHNLEKILPDEFSITFFYGILHKDLSFEYSNGGHPAPMLYQNGEVSILPGMGPLIIPIEINVKEEFKSVQLQKDSYMLLYTDGATEISDKSMNILGEDKLKKIFQESVSIGGDILVSMMESILAHSDRGTNDDDIAMMVLKLEGHHHHHH” as the sequence, how does the “soluble on expression in E. coli” value read?
**A.** soluble

**Q.** With “MHHHHHHGSTKTNSEILEQLKQASDGLLFMSESEYPFEVFLWEGSAPPVTHEIVLQQTGHGQDAPFKVVDIDSFFSRATTPQDWYEDEENAVVAKFQKLLEVIKSNLKNPQVYRLGEVELDVYVIGETPAGNLAGISTKVVET” as the sequence, how does the “soluble on expression in E. coli” value read?
**A.** soluble

**Q.** For “MSLKSALRLYNRASFKASHKVIEEYSTSFSLSTWLLSPRIRNDIRNLYAVVRIADEIVDGTAHAAGCSTAKIEEILDAYEIAVLAAPQQRFNTDLVLQAYGETARRCDFEQEHVIAFFASMRKDLKANTHDPDSFTTYVYGSAEVIGLLCLSVFNQGRTISKKRLEIMQNGARSLGAAFQKINFLRDLAEDQQNLGRFYFPKTSQGTLTKEQKEDLIADIRQDLAIAHDAFPEIPVQARIGVISAYLLFQKLTDRIEATPTADLLRERIRVPLHIKLSTLARATMKGLSMSIYRKNSEGHHHHHH”, which “soluble on expression in E. coli” value is on record?
**A.** soluble

**Q.** Which “soluble on expression in E. coli” value does the source give for “MLKLGVIGTGAISHHFIEAAHTSGEYQLVAIYSRKLETAATFASRYQNIQLFDQLEVFFKSSFDLVYIASPNSLHFAQAKAALSAGKHVILEKPAVSQPQEWFDLIQTAEKNNCFIFEAARNYHEKAFTTIKNFLADKQVLGADFNYAKYSSKMPDLLAGQTPNVFSDRFAGGALMDLGIYPLYAAVRLFGKANDATYHAQQLDNSIDLNGDGILFYPDYQVHIKAGKNITSNLPCEIYTTDGTLTLNTIEHIRSAIFTDHQGNQVQLPIQQAPHTMTEEVAAFAHMIQQPDLNLYQTWLYDAGSVHELLYTMRQTAGIRFEAEK” here?
**A.** soluble

**Q.** Which “soluble on expression in E. coli” value does the source give for “MNLASQISQAKTGNATMEWAKNYVSKLNDGQLALLQKMYADHQAKLKASEDEKKKKEMEELKMKAQQQAILDSLTQQIPIMVDVLRSSTSPDSQPSSSSSVMSSTDEDQITVKDVLIGKINKAQRQSSPNSSKPYTPRGIRERVLFDEHLYVFDKCSYDSKKRFFRCERKNTCPARIHTPFDAERVIHKVQVHNHPPPTTFDLAHYNIDYGKVKSGHILSLNGPQQTKNLLPPSLLTPKSDLEDETLSTKTEQKNASTMNILLSMTNNCDGRKPITLRLPDLFNKISEMEIHDMEMTLTKFLLENRELRTDLISRNGDLPVFFPNAHNDELVLFVADQHENDSVFQMIRVSERNEKSIRQAIQEHLQKVSNRSLMMNISSKINVPLSQQMIDQWRTEEFIRLDSSKPNFWKIHHVSKLQD” here?
**A.** not soluble

**Q.** For “ACDYTCGSACYSSSDVSTAQAAGYKLHEDGETVGSNSYPHKYNNYEGFDFSVSSPYYEWPILSSGDVYSGGSPGADRVVFNENNQLAGVITHTGASGNNFVECT”, which “soluble on expression in E. coli” value is on record?
**A.** soluble

**Q.** Which “soluble on expression in E. coli” value does the source give for “MALILTFLGKSGVARTKIAIAAAKLLASQGKRVLLAGLAEPVLPLLLEQTLTPDPQQIAPNLEVVQFQSSVLLERNWEEVKKLEAQYLRTPIIKEVYGQELVVLPGMDSALALNAIREYDASGKYDAIVYDGTGDAFTLRMLGLPESLSWYVRRFRQLFVNSDLGKTIAESPLIQPLISSFFNVNWTADNFAQPTNQVNNFLDKGKEALADPKRVAAFLVTTADPLEVVSVRYLWGSAQQIGLTIGGVIQVSSQTEGDLSAEFTPLEHHHHHH” here?
**A.** not soluble

— the DeepSol protein solubility set
